Assay results published in the Immune Epitope Database (IEDB).
pIC50, pKd: −log10 of the molar value. Values belong to the sequence of their own block, whether it stands above or below them.

Experiments:
HLA-B*48:01 = assay: IEDB peptide-MHC binding, purified MHC/competitive/fluorescence; filed as Kd, often an IC50 or EC50 that approximates it; ≥ and ≤ were set here for values at or beyond the usual limits of such assays; details: source organism: Vibrio vulnificus YJ016
HLA-B*46:01 [1] = assay: IEDB peptide-MHC binding, cellular MHC/competitive/fluorescence; ≥ and ≤ were set here for values at or beyond the usual limits of such assays; details: source organism: Human herpesvirus 4 strain B95-8
HLA-B*27:05 [2] = assay: IEDB peptide-MHC binding, purified MHC/competitive/fluorescence; ≥ and ≤ were set here for values at or beyond the usual limits of such assays; details: source organism: hepatitis C virus genotype 1a
HLA-C*07:02 = assay: IEDB peptide-MHC binding, purified MHC/direct/fluorescence; filed as Kd, often an IC50 or EC50 that approximates it; ≥ and ≤ were set here for values at or beyond the usual limits of such assays
HLA-A*69:01 = assay: as above
HLA-A*02:01 = assay: as above
HLA-B*27:20 = assay: IEDB peptide-MHC binding, purified MHC/competitive/fluorescence; filed as Kd, often an IC50 or EC50 that approximates it; ≥ and ≤ were set here for values at or beyond the usual limits of such assays
HLA-A*68:23 = assay: as above
HLA-B*40:13 = assay: as above
HLA-B*83:01 = assay: as above
HLA-B*45:06 = assay: as above
HLA-A*32:07 = assay: as above; details: source organism: Cryptosporidium parvum Iowa II
HLA-B*15:42 = assay: as above
HLA-B*40:01 = assay: IEDB peptide-MHC binding, purified MHC/direct/fluorescence; filed as Kd, often an IC50 or EC50 that approximates it; ≥ and ≤ were set here for values at or beyond the usual limits of such assays; details: source organism: Escherichia coli
HLA-B*08:01 = assay: as above; details: source organism: Escherichia coli
HLA-A*30:01 = assay: as above; details: source organism: Escherichia coli
HLA-B*15:01 = assay: as above
HLA-A*03:01 = assay: as above; details: source organism: Escherichia coli
HLA-B*27:05 [3] = assay: as above; details: source organism: Escherichia coli
HLA-A*26:01 = assay: as above; details: source organism: Escherichia coli
HLA-A*31:01 = assay: as above; details: source organism: Escherichia coli
HLA-A*01:01 [4] = assay: as above; details: source organism: Escherichia coli
HLA-B*07:02 = assay: as above
HLA-A*11:01 = assay: as above; details: source organism: Escherichia coli
HLA-B*58:01 = assay: as above; details: source organism: Escherichia coli
HLA-B*73:01 = assay: IEDB peptide-MHC binding, purified MHC/competitive/fluorescence; filed as Kd, often an IC50 or EC50 that approximates it; ≥ and ≤ were set here for values at or beyond the usual limits of such assays; details: source organism: Escherichia coli str. K-12 substr. MG1655
HLA-C*12:03 = assay: IEDB peptide-MHC binding, purified MHC/direct/fluorescence; filed as Kd, often an IC50 or EC50 that approximates it; ≥ and ≤ were set here for values at or beyond the usual limits of such assays
HLA-C*14:02 = assay: IEDB peptide-MHC binding, purified MHC/competitive/fluorescence; filed as Kd, often an IC50 or EC50 that approximates it; ≥ and ≤ were set here for values at or beyond the usual limits of such assays
HLA-C*06:02 [5] = assay: as above; details: source organism: Homo sapiens
HLA-B*51:01 = assay: IEDB peptide-MHC binding, purified MHC/direct/fluorescence; filed as Kd, often an IC50 or EC50 that approximates it; ≥ and ≤ were set here for values at or beyond the usual limits of such assays; details: source organism: Salmonella enterica
HLA-C*15:02 = assay: as above
HLA-C*06:02 [6] = assay: as above
HLA-B*46:01 [7] = assay: IEDB peptide-MHC binding, purified MHC/competitive/fluorescence; filed as Kd, often an IC50 or EC50 that approximates it; ≥ and ≤ were set here for values at or beyond the usual limits of such assays; details: source organism: Salmonella enterica subsp. enterica serovar Typhi
HLA-A*29:02 = assay: as above
HLA-A*32:15 = assay: as above; details: source organism: Salmonella enterica subsp. arizonae serovar 62:z4,z23:-
HLA-C*04:01 = assay: as above; details: source organism: Homo sapiens
HLA-A*01:01 [8] = assay: as above; details: source organism: Homo sapiens
[9] = source organism: Cryptosporidium parvum Iowa II
[10] = source organism: Cryptosporidium parvum
[11] = source organism: Escherichia coli
[12] = source organism: Salmonella enterica subsp. enterica serovar Typhi str. CT18
[13] = source organism: Salmonella enterica subsp. enterica serovar Typhi
[14] = source organism: Salmonella enterica subsp. arizonae serovar 62:z4,z23:-

Sequence: DEHPWQPML
pKd (HLA-B*48:01): ≤ 4.70

Sequence: FTYPVLEEM
pIC50 (HLA-B*46:01 [1]): 5.00

Sequence: GGATICGKY
pIC50 (HLA-B*27:05 [2]): ≤ 3.12

Sequence: MQFPGSVGF
pKd (HLA-C*07:02; [9]): 6.37
pKd (HLA-A*69:01; [10]): 5.44
pKd (HLA-A*02:01; [10]): 6.11
pKd (HLA-B*27:20; [9]): 9.10
pKd (HLA-A*68:23; [9]): 7.37
pKd (HLA-B*40:13; [9]): 9.05
pKd (HLA-B*83:01; [9]): ≤ 5.30
pKd (HLA-B*45:06; [9]): ≤ 5.30
pKd (HLA-A*32:07): 8.92
pKd (HLA-B*15:42; [9]): ≤ 5.30

pKd (HLA-B*40:01): ≤ 4.70
pKd (HLA-B*08:01): ≤ 4.70
pKd (HLA-A*30:01): 8.23
pKd (HLA-B*15:01; [11]): ≤ 4.70
pKd (HLA-A*03:01): ≤ 4.70
pKd (HLA-B*27:05 [3]): 7.19
pKd (HLA-A*26:01): ≤ 4.70
pKd (HLA-A*69:01; [11]): ≤ 4.70
pKd (HLA-A*02:01; [11]): ≤ 4.70
pKd (HLA-A*31:01): ≤ 4.70
pKd (HLA-A*01:01 [4]): ≤ 4.70
pKd (HLA-B*07:02; [11]): ≤ 4.70
pKd (HLA-A*11:01): ≤ 4.70
pKd (HLA-B*58:01): ≤ 4.70
pKd (HLA-B*73:01): ≤ 4.70
Sequence: RRRIGEIFK

pKd (HLA-C*12:03; source organism: Homo sapiens): 6.40
pKd (HLA-B*83:01; source organism: Homo sapiens): ≤ 5.30
pKd (HLA-B*45:06; source organism: Homo sapiens): ≤ 5.30
pKd (HLA-C*14:02; source organism: Homo sapiens): 6.68
pKd (HLA-B*15:42; source organism: Homo sapiens): ≤ 5.30
pKd (HLA-C*06:02 [5]): 5.42
Sequence: VMAPRTLIL

Sequence: YLRNAGAAM
pKd (HLA-B*51:01): ≤ 4.70
pKd (HLA-B*15:01; source organism: Salmonella enterica subsp. enterica serovar Typhimurium str. LT2): 7.51
pKd (HLA-C*15:02; [12]): 5.44
pKd (HLA-B*07:02; source organism: Salmonella enterica): 8.89
pKd (HLA-C*06:02 [6]; [12]): 5.44
pKd (HLA-B*27:20; [13]): 6.73
pKd (HLA-B*83:01; [13]): ≤ 5.30
pKd (HLA-B*45:06; [13]): ≤ 5.30
pKd (HLA-C*14:02; [13]): 8.44
pKd (HLA-B*46:01 [7]): 7.26
pKd (HLA-B*15:42; [13]): ≤ 5.30

Sequence: YTIYGAWMF
pKd (HLA-C*12:03; [14]): 5.92
pKd (HLA-C*15:02; [14]): 5.76
pKd (HLA-A*68:23; [14]): 9.22
pKd (HLA-B*40:13; [14]): 6.40
pKd (HLA-B*83:01; [14]): ≤ 5.30
pKd (HLA-B*45:06; [14]): ≤ 5.30
pKd (HLA-C*14:02; [14]): 6.46
pKd (HLA-A*29:02; [14]): 9.22
pKd (HLA-A*32:15): 7.10
pKd (HLA-B*15:42; [14]): ≤ 5.30

pKd (HLA-C*12:03; source organism: Homo sapiens): 6.55
pKd (HLA-C*07:02; source organism: Homo sapiens): ≥ 9.00
pKd (HLA-C*06:02 [6]; source organism: Homo sapiens): 7.85
pKd (HLA-B*83:01; source organism: Homo sapiens): ≤ 5.30
pKd (HLA-B*45:06; source organism: Homo sapiens): ≤ 5.30
pKd (HLA-A*29:02; source organism: Homo sapiens): ≥ 10.00
pKd (HLA-C*04:01): ≤ 5.30
pKd (HLA-A*01:01 [8]): ≤ 4.70
pKd (HLA-B*15:42; source organism: Homo sapiens): ≤ 5.30
Sequence: YYWPRPRRY
